T1: human PRLR on HEK293/hPRLR cells (Homo sapiens, UniProt P16471)
T1 construct: HA; expressed in transfected cells; host or cells: HEK293
T1 sequence (P16471 25-622): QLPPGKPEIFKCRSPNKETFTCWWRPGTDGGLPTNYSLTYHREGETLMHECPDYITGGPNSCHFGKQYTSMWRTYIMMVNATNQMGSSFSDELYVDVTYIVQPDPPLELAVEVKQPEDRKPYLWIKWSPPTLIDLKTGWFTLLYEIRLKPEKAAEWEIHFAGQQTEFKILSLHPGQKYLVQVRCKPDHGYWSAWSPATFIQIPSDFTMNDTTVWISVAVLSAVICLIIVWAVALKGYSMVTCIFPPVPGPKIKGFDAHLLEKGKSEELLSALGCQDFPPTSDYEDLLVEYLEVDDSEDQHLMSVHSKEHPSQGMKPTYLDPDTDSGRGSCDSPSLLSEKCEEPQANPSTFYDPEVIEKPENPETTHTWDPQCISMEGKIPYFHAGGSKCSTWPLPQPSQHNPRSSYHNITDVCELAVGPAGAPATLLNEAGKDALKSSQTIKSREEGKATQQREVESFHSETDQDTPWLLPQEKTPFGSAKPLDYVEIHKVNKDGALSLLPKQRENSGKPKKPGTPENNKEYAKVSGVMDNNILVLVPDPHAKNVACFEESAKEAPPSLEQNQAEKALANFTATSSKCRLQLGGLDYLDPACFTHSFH

T2: mouse PRLR on HEK293/mPRLR cells (Mus musculus, UniProt Q08501)
T2 construct: HA; expressed in transfected cells; host or cells: HEK293
T2 sequence (Q08501 20-608): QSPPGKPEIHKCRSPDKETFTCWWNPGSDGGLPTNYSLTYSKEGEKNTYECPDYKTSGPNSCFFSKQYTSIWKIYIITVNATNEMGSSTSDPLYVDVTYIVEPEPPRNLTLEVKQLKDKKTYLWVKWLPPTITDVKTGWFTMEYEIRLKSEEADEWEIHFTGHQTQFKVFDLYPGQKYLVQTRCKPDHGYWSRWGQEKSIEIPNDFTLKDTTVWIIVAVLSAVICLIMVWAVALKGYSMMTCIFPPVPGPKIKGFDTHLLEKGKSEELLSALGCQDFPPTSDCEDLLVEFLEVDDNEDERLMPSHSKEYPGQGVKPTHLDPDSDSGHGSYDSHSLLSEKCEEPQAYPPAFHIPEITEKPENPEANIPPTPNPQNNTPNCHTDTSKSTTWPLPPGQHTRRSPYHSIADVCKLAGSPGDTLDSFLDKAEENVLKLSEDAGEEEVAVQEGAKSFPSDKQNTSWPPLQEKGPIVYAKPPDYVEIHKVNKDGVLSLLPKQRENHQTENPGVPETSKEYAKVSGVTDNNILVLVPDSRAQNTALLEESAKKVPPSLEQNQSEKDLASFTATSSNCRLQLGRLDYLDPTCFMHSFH

T3: native PRLR expressing T47D cells (Homo sapiens, UniProt P16471)
T3 construct: a native PRLR expressing cell line (T47D); endogenous in cells; host or cells: T47D
T3 sequence (P16471 25-622): T1 sequence (P16471 25-622)

B1: H1H6975N: anti-PRLR antibody, human IgG1 Fc form of H2M6975N of Table 1; HCVR/LCVR SEQ ID NOs 370/378 (antibody, V domains shown)
VH: EVHLVESGGGLVQPGGSLRLSCAASGFTFSSYEMNWVRQTPGKGLEWISHISSRSVIIYYADSVKGRFTISRDNAKNSLFLQMNSLRAEDTAVYFCAGITIFGIPEYWGQGTLVTVSS
VL: EIVLTQSPATLSLSPGERATLSCRASQSVSSYFAWYQQKPGQAPRLLIYDASSRATGIPTRFSGSGSGTDFTLTISSLEPEDFAVYYCQQRSSWPITFGQGTRLEIK
modifications: human IgG1 Fc
B2: H1H6958N2: anti-PRLR antibody, receptor blocking, human IgG1 Fc form of H2M6958N2 of Table 1; HCVR/LCVR SEQ ID NOs 290/298 (antibody, V domains shown)
VH: QVQLVESGGGVVQPGRSLRLSCGASGFTFRNYGMQWVRQGPGKGLEWVTLISFDGNDKYYADSVKGRFTISRDNSKNTLFLQMNSLRTEDTAVYYCARGGDFDYWGQGTLVTVSS
VL: DIQMTQSPSSLSASVGDRVTITCRASQDIRKDLGWYQQKPGKAPKRLIYAASSLHSGVPSRFSGSGSGTEFTLTISSLQPEDFATYYCLQHNSYPMYTFGQGTKLEIK
B3: H1H6765P: fully human anti-PRLR antibody, human IgG1 Fc; HCVR/LCVR SEQ ID NOs 18/26 (antibody, V domains shown)
VH: EVQLVESGGGVVRPGGSLRLSCVGSGFSFDDHGMNWVRQGPGKGLEWVSGFNWNGGSTNYAESVKGRFTISRDNARNSLFLQMNSLRAEDTALYYCVRGRSGWFNDAFDVWGPGTMVTVSS
VL: EIVLTQSPGTLSLSPGERATLSCRASQTINSNYLAWYRQKPGQTPRLLIYGTSSRATGIPDRFSGSGSGTDFSLTISRLEPEDFAVFYCQQYAGLPTFGPGTKVDIK

Each molecule was assayed on Macaca fascicularis PRLR (mfPRLR.mmh; SEQ ID NO:403) (assay: Surface plasmon resonance (Biacore T200), antibody-capture format). Conditions: 25° C., analyte mfPRLR.mmh.
Assay type: binding
In short: (§1)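 Antibodies (human IgG1 Fc) captured on an anti-human Fc sensor surface; soluble monomeric (.mmh) or dimeric (.mFc) PRLR injected as analyte. ka and kd obtained by fitting to a 1:1 binding model.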

Chain of Macaca fascicularis PRLR (mfPRLR.mmh; SEQ ID NO:403) (as listed by the source): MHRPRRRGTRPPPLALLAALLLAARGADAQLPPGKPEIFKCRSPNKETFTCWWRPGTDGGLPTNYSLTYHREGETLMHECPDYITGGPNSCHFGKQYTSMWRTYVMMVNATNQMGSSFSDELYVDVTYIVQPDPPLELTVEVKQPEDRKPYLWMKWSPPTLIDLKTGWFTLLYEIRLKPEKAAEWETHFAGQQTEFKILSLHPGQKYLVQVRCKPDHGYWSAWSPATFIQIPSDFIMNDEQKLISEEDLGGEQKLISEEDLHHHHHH

| Molecule | ka [M/s] | kd [s⁻¹] |
| --- | --- | --- |
| B1 | 115000 | 0.000131 |
| B2 | 195000 | 0.00028 |
| B3 | 527000 | 0.000134 |

Same assay, conditions: 37° C., analyte mfPRLR.mmh

| Molecule | ka [M/s] | kd [s⁻¹] |
| --- | --- | --- |
| B1 | 140000 | 0.000317 |
| B2 | 328000 | 0.00134 |
| B3 | 1.06e+06 | 5.37e-05 |

These molecules were tested against T4, dimeric human PRLR (hPRLR.mFc; SEQ ID NO:402) (Homo sapiens, UniProt P16471) in the same assay as above. Conditions: 25° C., analyte hPRLR.mFc.
T4 construct: dimeric (hPRLR.mFc)
Assay type: binding
In short: as §1

T4 sequence (P16471 with tags, fused parts or gaps): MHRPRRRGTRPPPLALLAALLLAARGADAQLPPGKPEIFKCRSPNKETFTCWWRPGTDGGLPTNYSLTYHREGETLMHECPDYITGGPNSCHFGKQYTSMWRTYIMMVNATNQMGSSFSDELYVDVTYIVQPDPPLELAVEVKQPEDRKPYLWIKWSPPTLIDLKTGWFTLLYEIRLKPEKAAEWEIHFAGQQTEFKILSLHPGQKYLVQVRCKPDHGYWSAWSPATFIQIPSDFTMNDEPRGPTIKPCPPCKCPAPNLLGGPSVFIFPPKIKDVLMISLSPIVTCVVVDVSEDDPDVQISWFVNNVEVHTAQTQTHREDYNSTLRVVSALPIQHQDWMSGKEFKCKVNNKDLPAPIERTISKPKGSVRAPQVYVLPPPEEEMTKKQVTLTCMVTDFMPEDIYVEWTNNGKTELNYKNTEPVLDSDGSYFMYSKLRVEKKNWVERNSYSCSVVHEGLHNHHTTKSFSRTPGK

| Molecule | ka [M/s] | kd [s⁻¹] |
| --- | --- | --- |
| B1 | 287000 | 1.97e-05 |
| B2 | 422000 | 3.66e-05 |
| B3 | 869000 | 3.41e-05 |

Same assay, conditions: 37° C., analyte hPRLR.mFc

| Molecule | ka [M/s] | kd [s⁻¹] |
| --- | --- | --- |
| B1 | 386000 | 7.09e-05 |
| B2 | 829000 | 0.000139 |
| B3 | 801000 | 0.000103 |

These molecules were tested against T5, monomeric human PRLR (hPRLR.mmh; SEQ ID NO:401) (Homo sapiens, UniProt P16471) in the same assay as above. Conditions: 25° C., analyte hPRLR.mmh.
T5 construct: soluble monomeric (hPRLR.mmh); mmh (myc-myc-hexahistidine) (C)
Assay type: binding
In short: as §1

T5 sequence (P16471 with tags, fused parts or gaps): as the sequence (as listed by the source) above, with V105I, T139A, M154I, T187I, I236T counted along it

| Molecule | ka [M/s] | kd [s⁻¹] |
| --- | --- | --- |
| B1 | 150000 | 7.35e-05 |
| B2 | 233000 | 0.000272 |
| B3 | 907000 | 0.000113 |

Same assay, conditions: 37° C., analyte hPRLR.mmh

| Molecule | ka [M/s] | kd [s⁻¹] |
| --- | --- | --- |
| B1 | 211000 | 0.000273 |
| B2 | 413000 | 0.00131 |
| B3 | 1.25e+06 | 0.000366 |

Each molecule was assayed on HEK293 parental cells (assay: FACS cell surface binding). Conditions: not given.
Design: species or system human
In short: (§2)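 Flow cytometry: 1×10^5 cells/sample; primary Ab 10 μg/ml, 30 min on ice; 2 washes; PE anti-human 2° 10 μg/ml, 30 min on ice. Cells were HEK293 stably expressing HA-tagged PRLR of the given species, or untransfected HEK293. Readout was MFI fold over isotype.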

| Molecule | FACS Cell Binding [Fold Above Background] |
| --- | --- |
| B1 | 1 |
| B2 | 1 |
| B3 | 2 |

These molecules were tested against T1, human PRLR on HEK293/hPRLR cells (assay: FACS cell surface binding). Conditions: not given.
In short: as §2

| Molecule | FACS Cell Binding [Fold Above Background] |
| --- | --- |
| B1 | 38 |
| B2 | 35 |
| B3 | 38 |

Each molecule was assayed against T2, mouse PRLR on HEK293/mPRLR cells (assay: FACS cell surface binding). Conditions: not given.
In short: as §2

| Molecule | FACS Cell Binding [Fold Above Background] |
| --- | --- |
| B1 | 1 |
| B2 | 1 |
| B3 | 1 |

These molecules were tested against T3, native PRLR expressing T47D cells (assay: FACS cell surface binding). Conditions: not given.
In short: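 Binding expressed as mean fluorescence fold change above isotype background, measured by FACS after 30 min on ice with 10 μg/ml antibody and PE-conjugated anti-human detection. T47D, which natively expresses PRLR, tested with engineered HEK293/hPRLR and non-expressing HEK293 cells.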

| Molecule | FACS Cell Binding [Fold Above Background] |
| --- | --- |
| B1 | 46 |
| B2 | 37 |
| B3 | 40 |
